Measured values taken from publication PMC10660547 (Antibodies, 2023).

B1: HAPPID1 Fab with a C-terminal glycine4-serine linker and SpyTag on the heavy chain (Fab, V domains shown)
VH: QVQLVQSGAEVRNPGASVKVSCKASGYTFTSYAIHWVRQAPGHRLEWVGRINTDNGNTKYSQKFHGRVALSRDTSASTTYMDLSSLNSEDTAVYYCARAFYYSSGVMFDSWGQGALVTVSS
VL: QSALTQPPSVSGAPGQRVSISCTGGSSNFGAGYDVHWYQQLPATAPKLLIYGNNNRPSGVPDRFSGSKSGTSASLAITGLQAEDEGDYFCQSFDTSLSGWIFGGGTKLTVL
notes: as the heavy chain of m2 (VH of clone 102.1F10 with human Cδ1); as the light chain of m2 (lambda light chain of the HAPPI1 antibodies); Derived from pVITRO1-HAPPID1; also called SpyTagged HAPPID1 Fab; not shown: glycine4-serine linker and SpyTag, C-terminal, kept
B2: HAPPIE1 Fab (SpyTagged) (Fab, V domains shown)
VH: B1 VH
VL: B1 VL

Tests used:
[1] = target: T1, Phl p 7 (with a C-terminal tryptophan residue, biotinylated) (Phleum pratense (timothy grass), UniProt O82040, biotin (EZ-Link Maleimide-PEG2-Biotin)); assay: SPR; biotinylated Phl p 7 immobilised on an SA chip, 50 nM HAPPID1 Fab captured by it, aδNb072 flowed over (200 nM to 3 nM); 25 °C, 10 mM HEPES pH 7.4, 150 mM NaCl, 0.05% P20, 5 mM CaCl2; conditions: both partners purified
T1 construct: Phl p 7, polcalcin family 2-EF hand protein of timothy grass (Phleum pratense) pollen; C-terminal tryptophan residue added to aid spectrophotometric detection; also called biotinylated Phl p 7; timothy grass pollen allergen Phl p 7; source: E. coli BL21(DE3), purified (HisTrap FF Crude, SEC Superdex 75)
T1 sequence (O82040 whole entry, looked up): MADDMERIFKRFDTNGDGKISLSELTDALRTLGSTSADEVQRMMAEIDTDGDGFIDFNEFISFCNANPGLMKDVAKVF

[2] = target: anti-IgD nanobody 072 (not stated (a llama and an alpaca were immunised)); assay: SPR; aδNb072 (100 nM) captured by an anti-His-tag antibody on a CM5 chip; Fab flowed over, two-fold dilution series 200 nM to 3 nM; Biacore T200, 25 °C, 10 mM HEPES pH 7.4, 150 mM NaCl, 0.05% P20; KD from koff/kon
anti-IgD nanobody 072 (not stated (a llama and an alpaca were immunised)), sequence (heavy, as listed by the source): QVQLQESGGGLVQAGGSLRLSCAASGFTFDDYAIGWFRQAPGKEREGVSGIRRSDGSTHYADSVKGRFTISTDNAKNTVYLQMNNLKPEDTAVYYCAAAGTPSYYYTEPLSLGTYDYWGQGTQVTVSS

Binder | binding result [1] | Kd [2] | koff [2] | kon [2]
B1 | binds | 1.4 nM | 0.000822 s⁻¹ | 586000 M⁻¹ s⁻¹
B2 |  | 3.64 nM | 0.000829 s⁻¹ | 228000 M⁻¹ s⁻¹
